Measured values: patent US20150010525A1, “Catalytic Tagging System to Study Macro-Molecular Interactions Using Engineered Ubiquitin Ligase and Ubiquitin-Like Proteins to Facilitate Substrate Identification” (THE REGENTS OF THE UNIVERSITY OF CALIFORNIA, priority 2012, published 2015)

B1: 3-hydroxyacyl-CoA dehydrogenase type-2: potential cIAP1 substrate (protein, UniProt Q99714 2-261, looked up)
3-hydroxyacyl-CoA …: AAACRSVKGLVAVITGGASGLGLATAERLVGQGASAVLLDLPNSGGEAQAKKLGNNCVFAPADVTSEKDVQTALALAKGKFGRVDVAVNCAGIAVASKTYNLKKGQTHTLEDFQRVLDVNLMGTFNVIRLVAGEMGQNEPDQGGQRGVIINTASVAAFEGQVGQAAYSASKGGIVGMTLPIARDLAPIGIRVMTIAPGLFGTPLLTSLPEKVCNFLASQVPFPSRLGDPAEYAHLVQAIIENPFLNGEVIRLDGAIRMQP
B2: Malate dehydrogenase, mitochondrial: potential cIAP1 substrate (protein, UniProt P40926 25-338, looked up)
Malate dehydrogenase, …: AKVAVLGASGGIGQPLSLLLKNSPLVSRLTLYDIAHTPGVAADLSHIETKAAVKGYLGPEQLPDCLKGCDVVVIPAGVPRKPGMTRDDLFNTNATIVATLTAACAQHCPEAMICVIANPVNSTIPITAEVFKKHGVYNPNKIFGVTTLDIVRANTFVAELKGLDPARVNVPVIGGHAGKTIIPLISQCTPKVDFPQDQLTALTGRIQEAGTEVVKAKAGAGSATLSMAYAGARFVFSLVDAMNGKEGVVECSFVKSQETECTYFSTPLLLGKKGIEKNLGIGKVSSFEEKMISDAIPELKASIKKGEDFVKTLK
B3: SMAC/Diablo homolog, mitochondrial: known IAP substrate (protein, UniProt Q9NR28 22-239, looked up)
Diablo IAP-binding …: LCVPVVANFKKRCFSELIRPWHKTVTIGFGVTLCAVPIAQKSEPHSLSSEALMRRAVSLVTDSTSTFLSQTTYALIEAITEYTKAVYTLTSLYRQYTSLLGKMNSEEEDEVWQVIIGARAEMTSKHQEYLKLETTWMTAVGLSEMAAEAAYQTGADQASITARNHIQLVKLQVEEVHQLSRKAETKLAEAQIEELRQKTQEEGEERAESEQEAYLRED
B4: Serine protease HtrA2, mitochondrial: known IAP substrate (protein, UniProt O43464 134-458, looked up)
Serine protease HTRA2, …: AVPSPPPASPRSQYNFIADVVEKTAPAVVYIEILDRHPFLGREVPISNGSGFVVAADGLIVTNAHVVADRRRVRVRLLSGDTYEAVVTAVDPVADIATLRIQTKEPLPTLPLGRSADVRQGEFVVAMGSPFALQNTITSGIVSSAQRPARDLGLPQTNVEYIQTDAAIDFGNSGGPLVNLDGEVIGVNTMKVTAGISFAIPSDRLREFLHRGEKKNSSSGISGSQRRYIGVMMLTLSPSILAELQLREPSFPDVQHGVLIHKVILGSPAHRAGLRPGDVILAIGEQMVQNAEDVYEAVRTQSQLAVQIRRGRETLTLYVTPEVTE
B5: Pre-mRNA-splicing factor SPF27: potential XIAP substrate (protein, UniProt O75934 2-225, looked up)
Pre-mRNA-splicing factor SPF27: AGTGLVAGEVVVDALPYFDQGYEAPGVREAAAALVEEETRRYRPTKNYLSYLTAPDYSAFETDIMRNEFERLAARQPIELLSMKRYELPAPSSGQKNDITAWQECVNNSMAQLEHQAVRIENLELMSQHGCNAWKVYNENLVHMIEHAQKELQKLRKHIQDLNWQRKNMQLTAGSKLREMESNWVSLVSKNYEIERTIVQLENEIYQIKQQHGEANKENIRQDF

What follows are molecules tested against T1, cIAP1 (Homo sapiens, UniProt P61081+Q13490) (assay: SILAC mass spectrometry screen for cIAP1 substrates with NEDDylator^cIAP1 in apoptotic Jurkat cell lysate). Conditions: Light lysate with NEDDylator^cIAP1, Heavy lysate with Ubc12.
T1 construct: cIAP1(ΔR) (residues 1-555); GST (N, cleaved yes); made in house; host or cells: E. coli BL21 (DE3)
Type: biochemical
Experimental: Jurkat cells were grown in media containing either light or heavy isotopes of lysine and arginine and induced to undergo apoptosis with STS. Light cell extracts were incubated with the respective catalytic tagging system for each of the two IAPs and the heavy extracts labeled only with the wild-type NEDD8 E2, Ubc12. […] 100 mg ^13C6^15N2 L-Lys.2HCl and 86 mg ^13C6 L-Arg.HCl (Cambridge Isotope) were added to the same amount of medium to generate the “Heavy” medium. Jurkat cells were cultured separately in “Light” or “Heavy” medium for 7 days to allow for thorough isotope incorporation. For IAP substrate identification, 400 million cells were treated with 2 μM STS for 4 hours, harvested, lysed in M-PER mammalian protein extraction buffer (Thermo/Pierce) in the presence of protease inhibitors (100× ProteoBlock cocktail, Fermentas) and mixed with cell lysate prepared from 400 million untreated cells. […] Purified NEDDylated proteins were trypsinized and analyzed with tandem mass spectrometry (LC-MS/MS).
(§1) For SILAC experiments, Jurkat cells were cultured separately in “Light” (supplemented with regular Lys and Arg) or “Heavy” (supplemented with ^13C6^15N2 Lys and ^13C6 Arg) medium for 7 days to allow for thorough isotope incorporation. Apoptotic “Light” and “Heavy” cell extracts were prepared individually. The lysates were cleared by spinning and then diluted in 50 mM HEPES pH 7.4, 150 mM NaCl to 5 mg/ml and supplemented with 5 mM ATP, 10 mM MgCl2. Endogenous NEDD8 E1 is cell lysate was used to catalyze the reaction. HB-NEDD8 was added to both lysate at mass ratio 1:500; the catalytic tagging system was added to the “Light” lysate at mass ratio 1:1000. Equal molar of Ubc12 was added to the “Heavy” lysate. […] NEDDylated proteins were separated by one-dimensional SDS-PAGE, and trypsinized for LC-MS/MS analysis.
For liquid chromatography—Tandem mass spectrometry (LC-MS/MS) analysis, the tryptic peptides were first desalted and concentrated with a C18 Ziptip (Millipore). LC-MS/MS was carried out by reverse phase LC interfaced with a LTQ-Orbitrap (ThermoFisher Scientific) hybrid mass spectrometer. A nanoflow HPLC (NanoAcquity UPLC system, Waters Corporation) was equipped with a trap column (180 μm×20 mm, 5 μm SymmetryC18, from Waters) and an analytical column (100 μm×100 mm, 1.7 μm BEH130C18, from Waters). Peptides were eluted over a linear gradient from 2% solvent A (0.1% formic acid in water) to 35% solvent B (0.1% formic acid in acetonitrile) at 350 nL/min over 35 min. MS and MS/MS spectra were acquired in a data-dependent mode with MS spectra acquired in the Orbitrap at 30,000 resolving power and 6 CID MS/MS spectra acquired per MS in the LTQ linear ion trap. Dynamic exclusion was set at 90 seconds to prevent repeated MS/MS on the same precursor ion.
The identified peptides were searched against a random decoy protein database for evaluating the false positive rates. […] The decoy peptides were removed from the data. Protein IDs were assigned only when at least two unique peptides were identified from the same protein. For SILAC experiment, Light/Heavy ratios for the identified peptides were calculated, using ProteinProspector. The media Light/Heavy ratios of all the peptides identified for each protein were used to represent the Light/Heavy ratio of the protein.

T1 sequence (Q13490+P61081 fused): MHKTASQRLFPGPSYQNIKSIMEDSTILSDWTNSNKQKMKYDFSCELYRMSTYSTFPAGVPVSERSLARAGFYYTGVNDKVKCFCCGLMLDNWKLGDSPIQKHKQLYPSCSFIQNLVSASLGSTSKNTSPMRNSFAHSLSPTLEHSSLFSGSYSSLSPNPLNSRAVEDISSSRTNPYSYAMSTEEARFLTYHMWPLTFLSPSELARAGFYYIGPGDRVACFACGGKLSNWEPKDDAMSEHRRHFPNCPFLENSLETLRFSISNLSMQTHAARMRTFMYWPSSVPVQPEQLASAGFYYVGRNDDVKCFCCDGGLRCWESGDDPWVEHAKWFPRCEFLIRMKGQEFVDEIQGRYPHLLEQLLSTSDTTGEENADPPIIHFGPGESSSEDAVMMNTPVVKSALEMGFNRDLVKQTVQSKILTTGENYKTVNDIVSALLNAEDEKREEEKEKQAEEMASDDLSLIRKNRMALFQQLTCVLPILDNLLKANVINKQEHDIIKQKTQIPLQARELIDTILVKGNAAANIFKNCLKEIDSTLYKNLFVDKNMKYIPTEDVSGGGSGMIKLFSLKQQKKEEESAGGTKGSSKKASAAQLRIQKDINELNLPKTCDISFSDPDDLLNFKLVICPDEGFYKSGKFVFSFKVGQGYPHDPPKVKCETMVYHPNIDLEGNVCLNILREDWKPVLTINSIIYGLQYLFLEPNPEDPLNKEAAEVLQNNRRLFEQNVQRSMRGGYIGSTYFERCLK

| Molecule | L/H (Light/Heavy ratio) |
| --- | --- |
| B1 | 4.1 |
| B2 | 4.35 |
| B3 | 53.4 |
| B4 | 39.2 |

These molecules were tested against T2, XIAP (Homo sapiens, UniProt P61081+P98170) (assay: SILAC mass spectrometry screen for XIAP substrates with NEDDylator^XIAP in apoptotic Jurkat cell lysate). Conditions: Heavy lysate with Ubc12.
T2 construct: The N-terminus (residues 1-434) of XIAP was then fused via a flexible Gly-Gly-Ser-Gly linker to the NEDD8 E2, Ubc12; GST (N, cleaved yes); made in house; host or cells: E. coli BL21 (DE3)
Type: biochemical
Experimental: Jurkat cells were grown in media containing either light or heavy isotopes of lysine and arginine and induced to undergo apoptosis with STS. Light cell extracts were incubated with the respective catalytic tagging system for each of the two IAPs and the heavy extracts labeled only with the wild-type NEDD8 E2, Ubc12. 64 mg regular L-Lys and 83.6 mg L-Arg.HCl were added to 1 liter RPMI-1640 minus L-Lys and L-Arg (Thermo/Pierce), 10% fetal bovine serum (FBS) to generate “Light” medium. 100 mg ^13C6^15N2 L-Lys.2HCl and 86 mg ^13C6 L-Arg.HCl (Cambridge Isotope) were added to the same amount of medium to generate the “Heavy” medium. Jurkat cells were cultured separately in “Light” or “Heavy” medium for 7 days to allow for thorough isotope incorporation. For IAP substrate identification, 400 million cells were treated with 2 μM STS for 4 hours, harvested, lysed in M-PER mammalian protein extraction buffer (Thermo/Pierce) in the presence of protease inhibitors (100× ProteoBlock cocktail, Fermentas) and mixed with cell lysate prepared from 400 million untreated cells. The NEDDylated proteins were isolated under denaturing conditions via the HB-NEDD8 tag using a tandem affinity pull down procedure (Tagwerker et al., Mol Cell Proteomics 5:737-748 (2006)) (FIG. 11). Purified NEDDylated proteins were trypsinized and analyzed with tandem mass spectrometry (LC-MS/MS).
as §1
For liquid chromatography—Tandem mass spectrometry (LC-MS/MS) analysis, the tryptic peptides were first desalted and concentrated with a C18 Ziptip (Millipore). LC-MS/MS was carried out by reverse phase LC interfaced with a LTQ-Orbitrap (ThermoFisher Scientific) hybrid mass spectrometer. A nanoflow HPLC (NanoAcquity UPLC system, Waters Corporation) was equipped with a trap column (180 μm×20 mm, 5 μm SymmetryC18, from Waters) and an analytical column (100 μm×100 mm, 1.7 μm BEH130C18, from Waters). […]

T2 sequence (P98170+P61081 fused): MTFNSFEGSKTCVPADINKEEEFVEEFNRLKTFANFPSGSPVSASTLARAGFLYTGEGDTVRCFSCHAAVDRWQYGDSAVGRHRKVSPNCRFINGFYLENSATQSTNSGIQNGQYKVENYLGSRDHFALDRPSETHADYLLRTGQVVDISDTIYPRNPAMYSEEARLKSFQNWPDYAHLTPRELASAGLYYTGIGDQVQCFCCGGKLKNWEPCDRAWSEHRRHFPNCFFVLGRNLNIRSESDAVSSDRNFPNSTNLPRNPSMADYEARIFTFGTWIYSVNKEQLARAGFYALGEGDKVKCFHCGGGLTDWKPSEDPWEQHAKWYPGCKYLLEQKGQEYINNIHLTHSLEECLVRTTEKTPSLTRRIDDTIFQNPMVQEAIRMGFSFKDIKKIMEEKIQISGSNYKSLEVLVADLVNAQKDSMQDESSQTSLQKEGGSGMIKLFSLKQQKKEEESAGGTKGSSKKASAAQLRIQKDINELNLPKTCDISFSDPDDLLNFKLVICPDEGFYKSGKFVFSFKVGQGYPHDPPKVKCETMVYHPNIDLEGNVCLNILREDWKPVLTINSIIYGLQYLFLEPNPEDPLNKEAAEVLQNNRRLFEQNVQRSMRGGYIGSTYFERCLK

| Molecule | L/H (Light/Heavy ratio) |
| --- | --- |
| B5 | 4.35 |
| B3 | 7.39 |
| B4 | 21.4 |
